Results as given in the RNAGym collection of RNA variant scans (doi:10.1093/molbev/msab373).

B1: Azoarcus group I ribozyme (parent)
chain: GUGCCUUGCGCCGGGAAACCACGCAAGGGAUGGUGUCAAAUUCGGCGAAACCUAAGCGCCCGCCCGGGCGUAUGGCAACGCCGAGCCAAGCUUCGGCGCCUGCGCCGAUGAAGGUGUAGAGACUAGACGGCACCCACCUAAGGCAAACGCUAUGGUGAAGGCAUAGUCCAGGGAGUGGCGAAAGUCACACAAACCGG

Variants of: B1
Test: reverse-splicing fitness (ratio to wild type); higher = more active; in vitro selection; Mg2+ level not given
Outline: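 An in vitro group I ribozyme library with randomized positions was T7-transcribed and gel-purified. In triplicate, 10 pmol RNA in EPPS pH 7.5 was reacted with 50 pmoles of a 30-nt RNA substrate for 1 h at 37 °C across several added MgCl2 levels (1–48 mM), then stopped with EDTA. Products were reverse transcribed from a substrate-complementary primer, PCR-amplified and sequenced (HiSeq 4000). Fitness is a variant's read proportion after selection over that before, normalised to wild type.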

Variant	reverse-splicing fitness
C82G A111G A145C C150G C169G	0.00758
C82G A111G A145C C150G C169U	0.00923
C82G A111G A145C C150G C169A	0.00828
C82G A111G A145G C150G C169A U176A	0.015
C82G A111G A145G C150G C169A U176G	0.0094
C82G A111G A145G C150G C169A U176C	0.0146
C82G A111G A145G C169A U176A	0.0158
C82G A111G A145G C169A U176G	0.0057
C82G A111G A145G C169A U176C	0.0235
C82G A111G A145G C150G U176C	0.026
C82G A111G A145G C150G U176A	0.0145
C82G A111G A145G C150G U176G	0.00812
C82G A111G A145C C150A C169A U176A	0.0136
C82G A111G A145C C150A C169A U176C	0.00683
C82G A111G A145C C150A C169A U176G	0.00663
C82G A111G C150A C169U U176C	0.0146
C82G A111G C150A C169U U176A	0.0165
C82G A111G C150A C169U U176G	0.00706
C82G A111G A120U C150G C169A U176C	0.00831
C82G A111G A120U C150G C169A U176A	0.00788
C82G A111G A120U C150G C169A U176G	0.00267
C82G A111G A145C	0.392
C82G A111G A145U	0.454
C82G A111G A145G	0.431

Variant	reverse-splicing fitness
C82G A111G A145G C150U C169A U176A	0.0171
C82G A111G A145G C150U C169A U176C	0.0189
C82G A111G A145G C150U C169A U176G	0.00698
C82G A111G A145U C150G C169U	0.00934
C82G A111G A145U C150G C169A	0.0092
C82G A111G A145U C150G C169G	0.00774
C82G A111G A145C C150G U176G	0.00683
C82G A111G A145C C150G U176C	0.0294
C82G A111G A145C C150G U176A	0.0197
C82G A111G A145U C150U C169G U176A	0.0142
C82G A111G A145U C150U C169G U176C	0.0152
C82G A111G A145U C150U C169G U176G	0.00611
C82G A111G A120U C169A U176G	0.00169
C82G A111G A120U C169A U176A	0.00371
C82G A111G A120U C169A U176C	0.00309
C82G A111G A120U A145U C150U U176G	0.00444
C82G A111G A120U A145U C150U U176A	0.0117
C82G A111G A120U A145U C150U U176C	0.0184
C82G A111G A145U U176C	0.28
C82G A111G A145U U176A	0.257
C82G A111G A145U U176G	0.136
C82G A111G A145C C150U C169U U176A	0.0142
C82G A111G A145C C150U C169U U176G	0.0062
C82G A111G A145C C150U C169U U176C	0.0103

Variant	reverse-splicing fitness
C82G A111G A145C C169A	0.00733
C82G A111G A145C C169U	0.0132
C82G A111G A145C C169G	0.00994
C82G A111G A145G U176G	0.0821
C82G A111G A145G U176C	0.27
C82G A111G A145G U176A	0.25
C82G A111G A145G C169A	0.00875
C82G A111G A145G C169G	0.0101
C82G A111G A145G C169U	0.0129
C82G A111G A120U C169U U176G	0.00158
C82G A111G A120U C169U U176C	0.0055
C82G A111G A120U C169U U176A	0.00385
C82G A111G A120U C150G C169U U176A	0.00421
C82G A111G A120U C150G C169U U176C	0.00723
C82G A111G A120U C150G C169U U176G	0.00278
C82G A111G A145U C169A U176C	0.0135
C82G A111G A145U C169A U176A	0.0133
C82G A111G A145U C169A U176G	0.0052
C82G A111G A145U C150U C169A U176C	0.0132
C82G A111G A145U C150U C169A U176G	0.00584
C82G A111G A145U C150U C169A U176A	0.015
C82G A111G A145G C150U C169G	0.0106
C82G A111G A145G C150U C169A	0.0104
C82G A111G A145G C150U C169U	0.0137

Variant	reverse-splicing fitness
C82G A111G A145C C150U C169G U176G	0.00619
C82G A111G A145C C150U C169G U176A	0.0203
C82G A111G A145C C150U C169G U176C	0.0114
C82G A111G A145C C150G C169U U176G	0.00582
C82G A111G A145C C150G C169U U176A	0.00922
C82G A111G A145C C150G C169U U176C	0.013
C82G A111G A120U C150A C169U U176A	0.00523
C82G A111G A120U C150A C169U U176G	0.00229
C82G A111G A120U C150A C169U U176C	0.00456
C82G A111G A145U C169U	0.0127
C82G A111G A145U C169A	0.00634
C82G A111G A145U C169G	0.0101
C82G A111G C150A U176G	0.0174
C82G A111G C150A U176C	0.0385
C82G A111G C150A U176A	0.0337
C82G A111G A145G C150A C169G	0.00938
C82G A111G A145G C150A C169A	0.011
C82G A111G A145G C150A C169U	0.0105
C82G A111G A145C C150G C169G U176A	0.0101
C82G A111G A145C C150G C169G U176C	0.00856
C82G A111G A145C C150G C169G U176G	0.0057
C82G A111G A145G C150G C169G	0.00774
C82G A111G A145G C150G C169A	0.00978
C82G A111G A145G C150G C169U	0.0102

Variant	reverse-splicing fitness
C82G A111G A120U A145U U176C	0.0296
C82G A111G A120U A145U U176G	0.00582
C82G A111G A120U A145U U176A	0.0168
C82G A111G A145C C169U U176G	0.00545
C82G A111G A145C C169U U176C	0.0106
C82G A111G A145C C169U U176A	0.0135
C82G A111G A145U C150U C169U U176G	0.00549
C82G A111G A145U C150U C169U U176C	0.0137
C82G A111G A145U C150U C169U U176A	0.0134
C82G A111G A145G C150G C169U U176A	0.012
C82G A111G A145G C150G C169U U176C	0.0131
C82G A111G A145G C150G C169U U176G	0.00803
C82G A111G C150U C169U U176C	0.0172
C82G A111G C150U C169U U176A	0.0147
C82G A111G C150U C169U U176G	0.00785
C82G A111G A145G C150U C169U U176A	0.0152
C82G A111G A145G C150U C169U U176C	0.0151
C82G A111G A145G C150U C169U U176G	0.00678
C82G A111G C150A C169A U176C	0.0224
C82G A111G C150A C169A U176G	0.00701
C82G A111G C150A C169A U176A	0.0211
C82G A111G C150A C169G U176G	0.00751
C82G A111G C150A C169G U176A	0.0217
C82G A111G C150A C169G U176C	0.0228

Variant	reverse-splicing fitness
C82G A111G A120U A145U C169A U176G	0.0018
C82G A111G A120U A145U C169A U176C	0.00207
C82G A111G A120U A145U C169A U176A	0.00206
C82G A111G A145C C150A C169U U176G	0.00582
C82G A111G A145C C150A C169U U176A	0.0123
C82G A111G A145C C150A C169U U176C	0.00961
C82G A111G C150U U176C	0.144
C82G A111G C150U U176A	0.128
C82G A111G C150U U176G	0.0512
C82G A111G A145U C150G C169U U176A	0.00966
C82G A111G A145U C150G C169U U176G	0.00577
C82G A111G A145U C150G C169U U176C	0.016
C82G A111G A145C C150A C169G	0.00798
C82G A111G A145C C150A C169U	0.0097
C82G A111G A145C C150A C169A	0.00763
C82G A111G A120U A145U C150U C169U U176G	0.00196
C82G A111G A120U A145U C150U C169U U176C	0.00263
C82G A111G A120U C150U C169A	0.00504
C82G A111G A120U C150U C169U	0.00493
C82G A111G A120U C150U C169G	0.00538
C82G A111G C150G U176G	0.00548
C82G A111G C150G U176A	0.0136
C82G A111G C150G U176C	0.0225
C82G A111G A120U A145U C169G U176G	0.00156

Variant	reverse-splicing fitness
C82G A111G A120U A145U C169G U176A	0.0022
C82G A111G A120U A145U C169G U176C	0.00235
C82G A111G A145G C150U C169G U176G	0.00635
C82G A111G A145G C150U C169G U176A	0.017
C82G A111G A145G C150U C169G U176C	0.0216
C82G A111G A145G C150A U176C	0.051
C82G A111G A145G C150A U176G	0.0208
C82G A111G A145G C150A U176A	0.0383
C82G A111G A145G C150U U176G	0.068
C82G A111G A145G C150U U176A	0.174
C82G A111G A145G C150U U176C	0.213
C82G A111G A145C C150U U176A	0.0557
C82G A111G A145C C150U U176C	0.0592
C82G A111G A145C C150U U176G	0.0267
C82G A111G C150U C169A U176A	0.0173
C82G A111G C150U C169A U176G	0.00685
C82G A111G C150U C169A U176C	0.0178
C82G A111G A120U A145U C169U U176A	0.00226
C82G A111G A120U A145U C169U U176C	0.0031
C82G A111G A120U A145U C169U U176G	0.00199
C82G A111G C150A	0.0393
C82G A111G C150G	0.0256
C82G A111G C150U	0.199
